Experimental findings from patent US20160136231A1 are described below.

This assay addresses mouse ChemR23, PathHunter β-Arrestin cell line (mouse) (UniProt P97468). As to the kind of experiment: cell-based or functional assay.

Sequence of mouse ChemR23, PathHunter β-Arrestin cell line (mouse) (P97468 whole entry): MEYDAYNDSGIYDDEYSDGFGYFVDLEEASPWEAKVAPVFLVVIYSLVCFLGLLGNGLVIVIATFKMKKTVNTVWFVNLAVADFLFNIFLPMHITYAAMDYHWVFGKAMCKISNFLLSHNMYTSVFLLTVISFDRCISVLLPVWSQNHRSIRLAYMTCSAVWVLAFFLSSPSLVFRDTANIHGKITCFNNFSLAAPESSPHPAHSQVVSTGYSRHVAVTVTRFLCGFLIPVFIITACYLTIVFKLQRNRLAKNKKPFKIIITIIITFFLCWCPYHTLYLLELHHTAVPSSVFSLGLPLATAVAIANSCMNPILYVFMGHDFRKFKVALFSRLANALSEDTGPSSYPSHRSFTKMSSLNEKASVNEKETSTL

“hrChemerin (from UniProt Q99969 21-157) (ligand)” gave an EC50, Arrestin, Agonist (RC50, uM) of 0.00154 µM.
